Measured values reported in PMC9834252 (Nature Communications, 2023).

Molecular target: T1, M1-linked di-Ub (UniProt P0CG48 1-76; P0CG48 1-76)
T1 construct: ubiquitin, distal protomer (its C-terminus joined to M1 of the next); ubiquitin, proximal protomer (free C-terminus); also called M1 di-Ub; linear di-Ub; source: E. coli, purified (acid precipitation, cation exchange, SEC)
Experiment: ITC; M1-linked di-Ub and HOIL-1 (WT or I358R), direct binding; who was titrated and the concentrations are not told; 25 °C, 10 mM HEPES pH 7.9, 100 mM NaCl
Details: both partners purified

Kd: ~50 µM
B1: HOIL-1 helix-RBR (WT) (domain or fragment, human, UniProt Q9BYM8 233-510, looked up)
chain: DEEERARLAGEEEALRQYQQRKQQQQEGNYLQHVQLDQRSLVLNTEPAECPVCYSVLAPGEAVVLRECLHTFCRECLQGTIRNSQEAEVSCPFIDNTYSCSGKLLEREIKALLTPEDYQRFLDLGISIAENRSAFSYHCKTPDCKGWCFFEDDVNEFTCPVCFHVNCLLCKAIHEQMNCKEYQEDLALRAQNDVAARQTTEMLKVMLQQGEAMRCPQCQIVVQKKDGCDWIRCTVCHTEICWVTKGPRWGPGGPGDTSGGCRCRVNGIPCHPSCQNCH
notes: HOIL-1, human, residues 233-510 (N-terminal helix and RBR module); also called WT HOIL-1; HOIL-1 233-510 (helix-RBR); source: E. coli BL21(DE3), purified (Ni-NTA, SEC)
